According to US20240352075A1, “PACAP1-23 ANALOG GLYCOPEPTIDES AND METHODS FOR PRODUCING AND USING THE SAME” (priority 2021, published 2024):
Primed or numbered codes have the meaning given here. Where no end group is shown, it is not given here. [ ]: non-standard residue; d: D form. Glc″ = glucose, glycoside on Ser; Lac′ = lactose, glycoside on Ser; Nva = CCC[C@H](N)C(=O)O

How the values were obtained:
Experiment in all cases: cell-based or functional assay
human PAC1 = target: T1, human PAC1 (human, UniProt P41586 21-468)
T1 sequence (looked up): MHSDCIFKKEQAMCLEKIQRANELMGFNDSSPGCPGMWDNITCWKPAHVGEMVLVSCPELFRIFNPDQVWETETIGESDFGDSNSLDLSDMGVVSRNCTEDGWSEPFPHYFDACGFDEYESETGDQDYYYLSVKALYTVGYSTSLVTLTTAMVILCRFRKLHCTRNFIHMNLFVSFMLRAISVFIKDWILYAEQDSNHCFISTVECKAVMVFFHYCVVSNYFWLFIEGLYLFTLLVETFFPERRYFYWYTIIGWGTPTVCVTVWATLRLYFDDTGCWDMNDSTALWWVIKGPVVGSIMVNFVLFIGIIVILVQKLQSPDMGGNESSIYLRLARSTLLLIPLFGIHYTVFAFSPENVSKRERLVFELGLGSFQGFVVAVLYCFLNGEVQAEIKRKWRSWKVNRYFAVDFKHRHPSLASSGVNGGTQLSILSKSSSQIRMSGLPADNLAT

human VPAC1 [1] = target: T2, human VPAC1 (human, UniProt P32241 31-457)
T2 sequence (looked up): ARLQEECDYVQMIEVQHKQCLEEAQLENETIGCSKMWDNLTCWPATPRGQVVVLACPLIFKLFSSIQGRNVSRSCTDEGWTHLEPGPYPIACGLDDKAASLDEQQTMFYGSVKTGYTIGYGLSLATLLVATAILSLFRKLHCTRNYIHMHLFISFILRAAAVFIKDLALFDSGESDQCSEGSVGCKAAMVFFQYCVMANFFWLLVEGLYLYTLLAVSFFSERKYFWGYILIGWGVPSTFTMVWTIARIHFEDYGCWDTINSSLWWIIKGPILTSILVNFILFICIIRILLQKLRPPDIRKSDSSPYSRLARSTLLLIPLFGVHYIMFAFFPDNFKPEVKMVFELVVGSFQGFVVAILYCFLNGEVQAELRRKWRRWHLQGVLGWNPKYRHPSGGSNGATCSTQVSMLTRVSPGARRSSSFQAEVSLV

human VPAC2 [2] = target: T3, human VPAC2 (human, UniProt P41587 24-438)
T3 sequence (looked up): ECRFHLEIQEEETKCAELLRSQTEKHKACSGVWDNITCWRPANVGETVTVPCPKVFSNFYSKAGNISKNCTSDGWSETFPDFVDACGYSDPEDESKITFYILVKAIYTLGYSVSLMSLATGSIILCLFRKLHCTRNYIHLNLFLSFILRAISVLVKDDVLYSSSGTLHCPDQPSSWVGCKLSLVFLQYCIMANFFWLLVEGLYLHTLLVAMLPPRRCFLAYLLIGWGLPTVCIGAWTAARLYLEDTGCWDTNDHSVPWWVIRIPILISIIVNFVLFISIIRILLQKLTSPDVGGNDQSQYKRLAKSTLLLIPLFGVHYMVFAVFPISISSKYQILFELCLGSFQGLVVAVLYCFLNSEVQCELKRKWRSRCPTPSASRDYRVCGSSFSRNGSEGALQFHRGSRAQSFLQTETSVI

human VPAC1 [3] = target: T2, human VPAC1; remark: listed apart in the source
human VPAC2 [4] = target: T3, human VPAC2; remark: listed apart in the source
human VPAC2 [5] = target: T3, human VPAC2; remark: listed apart in the source
human VPAC1 [6] = target: T2, human VPAC1; remark: listed apart in the source

Row | Binder | cAMP stimulation EC50 (human PAC1) | cAMP stimulation EC50 (human VPAC1 [1]) | selectivity for PAC1 versus VPAC2 (cAMP potency) (human VPAC2 [2]) | selectivity for PAC1 versus VPAC1 (cAMP potency) (human VPAC1 [3]) | cAMP stimulation Emax (human PAC1) | cAMP stimulation EC50 (human VPAC2 [4]) | cAMP stimulation Emax (human VPAC2 [4]) | cAMP stimulation Emax (human VPAC1 [1]) | cAMP stimulation Emax (Table 1, differs from Table 3) (human VPAC2 [5]) | cAMP stimulation EC50 (Table 1, differs from Table 3) (human VPAC1 [6]) | cAMP stimulation Emax (Table 1, differs from Table 3) (human VPAC1 [6])
1 | HSDGIFTDSYSRYRKQ[Nva]AVKKYLS(Glc″)-NH2 [CRA-DV-3023] | 0.64 nM | 37 nM | ~900 fold | ~60 fold | – | – | – | – | – | – | –
2 | HSDAIFTDSYSRYRKQ[Nva]AVKKYLS(Lac′)-NH2 [CRA-TG-3026] | 7 nM | 38 nM | – | – | 181% | 321 nM | 115% | 95% | 190% | 35 nM | 124%
